T1: human CD22-ECD-His protein (human, UniProt P20273 20-687)
T1 construct: Made in house in HEK293E; also called hCD22-ECD-His; recombinant human CD22-ECD His protein; not shown: His tag
T1 sequence: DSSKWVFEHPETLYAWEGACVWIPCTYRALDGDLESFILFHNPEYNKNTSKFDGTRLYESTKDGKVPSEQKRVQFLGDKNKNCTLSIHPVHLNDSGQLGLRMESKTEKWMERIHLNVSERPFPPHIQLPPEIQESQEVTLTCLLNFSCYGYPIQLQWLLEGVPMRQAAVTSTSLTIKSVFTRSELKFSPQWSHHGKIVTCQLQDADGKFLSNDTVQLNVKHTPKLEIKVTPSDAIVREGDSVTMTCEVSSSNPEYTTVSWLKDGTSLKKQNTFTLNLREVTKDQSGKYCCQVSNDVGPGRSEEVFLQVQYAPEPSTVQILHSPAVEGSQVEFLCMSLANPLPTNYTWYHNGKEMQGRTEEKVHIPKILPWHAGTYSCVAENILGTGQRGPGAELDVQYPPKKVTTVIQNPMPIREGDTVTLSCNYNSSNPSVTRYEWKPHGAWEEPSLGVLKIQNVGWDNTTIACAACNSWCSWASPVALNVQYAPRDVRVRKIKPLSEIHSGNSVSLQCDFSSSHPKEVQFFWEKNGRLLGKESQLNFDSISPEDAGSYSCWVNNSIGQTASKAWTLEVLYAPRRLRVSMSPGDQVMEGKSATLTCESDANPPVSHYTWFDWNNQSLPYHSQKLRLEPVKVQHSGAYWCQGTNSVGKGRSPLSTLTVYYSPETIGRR

T2: monkey CD22 protein (ACROBiosystems, SI2-R52Ha) (monkey (rhesus monkey in paragraph 148), UniProt H9G1X2 18-686)
T2 construct: extracellular domain; also called monkey CD22-ECD; monkey CD22-ECD-His
T2 sequence: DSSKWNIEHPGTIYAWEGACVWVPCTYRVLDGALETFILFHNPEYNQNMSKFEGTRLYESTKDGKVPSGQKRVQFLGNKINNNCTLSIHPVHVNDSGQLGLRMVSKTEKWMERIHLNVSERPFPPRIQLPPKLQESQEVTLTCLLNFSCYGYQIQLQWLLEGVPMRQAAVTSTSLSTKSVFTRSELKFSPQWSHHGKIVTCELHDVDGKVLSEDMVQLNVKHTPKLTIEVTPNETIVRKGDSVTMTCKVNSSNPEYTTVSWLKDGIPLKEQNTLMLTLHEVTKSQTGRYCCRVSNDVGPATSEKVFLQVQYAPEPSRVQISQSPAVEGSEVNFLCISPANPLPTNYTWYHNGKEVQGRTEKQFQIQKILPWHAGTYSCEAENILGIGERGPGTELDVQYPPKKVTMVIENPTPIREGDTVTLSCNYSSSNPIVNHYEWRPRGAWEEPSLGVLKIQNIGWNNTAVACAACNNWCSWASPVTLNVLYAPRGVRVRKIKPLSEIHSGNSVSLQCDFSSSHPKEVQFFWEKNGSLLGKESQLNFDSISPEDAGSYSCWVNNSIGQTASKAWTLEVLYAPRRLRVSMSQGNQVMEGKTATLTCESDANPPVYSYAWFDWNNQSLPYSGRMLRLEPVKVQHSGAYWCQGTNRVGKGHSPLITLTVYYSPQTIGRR

B1: F1.105.11 (antibody, human IgG1, kappa, V domains shown)
VH: EVQLQQSGPVLVKPGASVKMSCKASGYTFSDYFMNWVKQSHGKSLEWIGIINSYSGGTSYNQKFKGKATLTVDKSSSTAYMELNSLTSEDSAVYYCARWMDYWGQGTSVTVSS
VL: DVQITQSPSYLAASPGETITINCRTSESISKHLAWYQEKPGKTNKLLIYSGSTLQSGIPSRFSGSGSGTDFTLTISSLEPEDFAMYYCQQHNEYPWTFGGGTKLEIKR
notes: Human-murine chimeric IgG1, kappa
B2: F1.200.11 (antibody, human IgG1, kappa, V domains shown)
VH: QNQLVQSGPELKKPGETVKISCKASGYTFTTAGMQWVQKMPGKGFKWIGWINTLSGEPKYAEDFKGRFAFSLETSATTAYLQISNLKNEDTATYFCARAYYSNLYWYFDVWGTGTTVTVSS
VL: DIVMTQSQKFMSTTVGDRVTITCKASQNVVTAVAWYQQKPGQSPKVLIYSASNRYSGVPDRFTGSGSGTDFTLTISNMHSEDLANYFCHQYSSYPFTFGSGTKLEIKR
notes: as for B1
B3: F1.280.1 (antibody, human IgG1, kappa, V domains shown)
VH: QIQLVQSGPELKKPGETVKISCKASGYTFTTYGMSWVKQTPGKGLTWMGWINTDSGVPTYADDFKRRFAFSLEASATTAYLQINNLKNEDTATYFCARGGPDYWGQGTTLTVSS
VL: DILLTQSPATLSVTPGETVSLSCRASQSIYKNLHWYHQKSHRSPRLLIKYASDSISGIPSRFTGSGSGTNFTLSINSVKPEDEGIYYCLQGYIVPLTFGAGTKLELKR
notes: as for B1
B4: F1.216.2 (antibody, human IgG1, kappa, V domains shown)
VH: QVQLQQSGPEVVRPGASVKISCKASGYAFSSSWMNWMKQRPGKALEWIGRIYPGDGDTNYSGEFKVKATLTADKSSSTAYMQLSSLTSEDSAVYFCAREGSYYSNPWYFDYWGQGTTLTVSS
VL: DVLVTQTPLSLPVSLGDQASISCRSSQSIVQSNGDTYLEWYLQKPGQSPKLLIYKVSNRFSGVPDRFSGSGSGTDFTLKISRVEAEDLGVYYCFQGSHVPFTFGSGTKLEIKR
notes: as for B1
B5: F1.224.1 (antibody, human IgG1, kappa, V domains shown)
VH: EVLLHQSGPELVKPGASVKISCKASGYTFTDFNMDWVRQRHGQSLEWIGDVNPNNGGTIYNQKFKGKATLTVDKSSSTVYMDLRSLTSDDTAVYYCVRLGTSDYGEAWFISWGQGTVVTVSA
VL: DIVLTQSPASLAVSLGQRATISCRASQSVSTPRYSFMHWYQQKPGQPPKLLIKYASNLESGFPARFTGSGSGTDFTLNIHPVEEEDTAAYYCQQSWAIPWTFGGGTKLEIKR
notes: as for B1
B6: HA22-hIgG1 (antibody, V domains shown)
VH: EVQLVESGGGLVKPGGSLKLSCAASGFAFSIYDMSWVRQTPEKCLEWVAYISSGGGTTYYPDTVKGRFTISRDNAKNTLYLQMSSLKSEDTAMYYCARHSGYGTHWGVLFAYWGQGTLVTVSA
VL: DIQMTQTTSSLSASLGDRVTISCRASQDISNYLNWYQQKPDGTVKLLIYYTSILHSGVPSRFSGSGSGTDYSLTISNLEQEDFATYFCQQGNTLPWTFGCGTKLEIKR
B7: F1.120.15 (antibody, human IgG1, kappa, V domains shown)
VH: QVQLQQSGPELVKPGASVKISCKASGNAFSNSWMNWVKQRPGKGLEWIGRVYSEDGDTQYNGKFRDKATLTADRSTSTAYMQLSSLTSEDSAVYFCARWLIYYGTYGAMDYWGQGTSVTVSS
VL: B6 VL with S30N, Q37H, Y50F, I53R, L54P, H55Y, F83I, C100G
notes: as for B1
B8: F1.257.3 (antibody, human IgG1, kappa, V domains shown)
VH: QVQLQQSGPELARPGASVKLSCKASGYTFTSYGISWVKQRTGQDLEWIGEIYPKLGTTYYNEKFKDKATLTTDRSSSTAYMALRSLTSEDSAVYFCACPHYYATRGGDYWGQGTTLTVSS
VL: EIVLTQSPATLSVTPGDSVTFSCRASQSISNHLHWYQQKSHESPRLLIRYASQSISGIPSRFSGSGSGTDFTLSLSSVETEDFGVYFCQQSHSWPYTFGGGTKLEIAR
notes: as for B1

Positions count from the first letter of the chain named.

One assay concerns the target T1, human CD22-ECD-His protein. The assay is described as follows: ELISA, Ab 0.01 nM. The method in brief:
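Plates coated overnight at 4 °C with 2 μg/mL CD22-ECD-His and blocked with 2% BSA in PBS. Chimeric antibody bound at 37 °C for 2 h, followed by HRP-labeled secondary antibody at 37 °C for 2 h. TMB read-out developed 30 min at room temperature and stopped with 1.0 N HCl.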
In general terms: An ELISA detects its analyte on a solid surface through an enzyme-linked reagent.
On to B1, for which the OD450 is 1.93 OD450. Still for that read-out and setting: the figure for B2 is 2 OD450. Same read-out and setting: the figure for B3 is 1.92 OD450.

Consider B4, for which the OD450 stood at 2.48 OD450. The same measure, in the same setting: the figure for B5 is 2.21 OD450; for B6 it is 2.12 OD450. The same measure, in the same setting: under B7 stands 2.28 OD450; under B8, 1.66 OD450.

The target in another assay is T2, monkey CD22 protein (ACROBiosystems, …). As to the kind of experiment: ELISA, monkey CD22-ECD-His coated. Put shortly:
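Read-out is TMB absorbance after a 30 min room-temperature development stopped with 1.0 N HCl. It reflects chimeric antibody bound to plate-coated CD22 (2 μg/mL), detected with an HRP-labelled secondary antibody. Antibody and secondary incubations each ran 2 h at 37° C.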
For B1, the “EC50 (read off the curve)” value is approximately 0.1 nM. As for B2, the “EC50 (read off the curve)” value is approximately 1 nM.

In the case of B4, the “EC50 (read off the curve)” value was approximately 0.01 nM.

Take B5: the “EC50 (read off the curve)” value is approximately 0.04 nM. Still for that read-out and setting: the figure for B6 is approximately 0.05 nM; for B7 it is approximately 0.2 nM.

As usually defined, the EC50 (read off the curve) is the midpoint of the concentration-response curve.

The values are drawn from patent US20240084003A1 (SIMCERE ZAIMING PHARMACEUTICAL, published 2024).
